Data: patent publication US20220017635A1
Values belong to the binder of their own block, whether it stands above or below them.

Tests used:
[1] = molecular target: chimeric TfR A02 (human/mouse chimera) (UniProt P02786); experiment: ELISA on immobilized chimeric TfR
[2] = molecular target: huTfR with mouse apical domain (human/mouse chimera) (UniProt P02786); experiment: ELISA on immobilized chimeric TfR
[3] = molecular target: chimeric TfR A03 (human/mouse chimera) (UniProt P02786); experiment: ELISA on immobilized chimeric TfR; grade = binding relative to His-huTfR (++ 0.5 or more, + 0.2 to less than 0.5)
[4] = molecular target: chimeric TfR A04 (human/mouse chimera) (UniProt P02786); experiment: as above
Chain of chimeric TfR A04 (human/mouse chimera) (P02786 other isoform, or with tags, fused parts or gaps mutant): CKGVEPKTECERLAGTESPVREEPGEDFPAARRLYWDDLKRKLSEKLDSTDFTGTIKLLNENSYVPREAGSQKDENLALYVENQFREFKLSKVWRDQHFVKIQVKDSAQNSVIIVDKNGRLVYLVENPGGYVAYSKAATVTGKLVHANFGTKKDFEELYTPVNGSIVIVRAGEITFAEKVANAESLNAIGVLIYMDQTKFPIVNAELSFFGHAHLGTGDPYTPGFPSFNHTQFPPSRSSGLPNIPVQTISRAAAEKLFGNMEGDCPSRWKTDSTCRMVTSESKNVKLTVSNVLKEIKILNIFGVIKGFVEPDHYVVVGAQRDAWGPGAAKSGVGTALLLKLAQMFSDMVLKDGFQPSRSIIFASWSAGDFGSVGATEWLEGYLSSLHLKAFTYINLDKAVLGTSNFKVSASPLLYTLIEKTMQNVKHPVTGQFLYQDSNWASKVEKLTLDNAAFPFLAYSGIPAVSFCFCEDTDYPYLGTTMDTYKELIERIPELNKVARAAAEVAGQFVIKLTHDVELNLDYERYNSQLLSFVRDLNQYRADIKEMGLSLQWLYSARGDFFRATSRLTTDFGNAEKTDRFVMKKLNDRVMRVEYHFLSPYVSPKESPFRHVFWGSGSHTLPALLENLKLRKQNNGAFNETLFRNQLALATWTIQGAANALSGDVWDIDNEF

[5] = molecular target: chimeric TfR A05 (human/mouse chimera) (UniProt P02786); experiment: as above
Chain of chimeric TfR A05 (human/mouse chimera) (P02786 other isoform, or with tags, fused parts or gaps mutant): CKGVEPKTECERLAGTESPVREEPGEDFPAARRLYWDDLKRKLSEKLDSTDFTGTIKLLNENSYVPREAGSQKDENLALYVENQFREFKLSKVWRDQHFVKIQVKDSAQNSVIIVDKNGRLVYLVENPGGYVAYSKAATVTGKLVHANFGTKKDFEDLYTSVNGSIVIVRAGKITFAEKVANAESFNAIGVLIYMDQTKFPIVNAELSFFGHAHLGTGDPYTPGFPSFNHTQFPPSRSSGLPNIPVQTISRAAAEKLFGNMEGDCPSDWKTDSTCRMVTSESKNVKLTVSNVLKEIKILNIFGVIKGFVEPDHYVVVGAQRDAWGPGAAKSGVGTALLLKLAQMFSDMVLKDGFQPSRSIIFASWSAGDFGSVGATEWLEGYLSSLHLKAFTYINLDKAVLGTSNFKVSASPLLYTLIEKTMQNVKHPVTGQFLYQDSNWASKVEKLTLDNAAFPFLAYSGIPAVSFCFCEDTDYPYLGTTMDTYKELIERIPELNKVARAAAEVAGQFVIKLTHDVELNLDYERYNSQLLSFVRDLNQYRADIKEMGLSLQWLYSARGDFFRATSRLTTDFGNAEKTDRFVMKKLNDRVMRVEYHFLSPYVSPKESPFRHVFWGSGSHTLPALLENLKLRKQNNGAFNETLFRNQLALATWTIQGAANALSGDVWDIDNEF

[6] = molecular target: chimeric TfR A07 (human/mouse chimera) (UniProt P02786); experiment: as above
Chain of chimeric TfR A07 (human/mouse chimera) (P02786 other isoform, or with tags, fused parts or gaps mutant): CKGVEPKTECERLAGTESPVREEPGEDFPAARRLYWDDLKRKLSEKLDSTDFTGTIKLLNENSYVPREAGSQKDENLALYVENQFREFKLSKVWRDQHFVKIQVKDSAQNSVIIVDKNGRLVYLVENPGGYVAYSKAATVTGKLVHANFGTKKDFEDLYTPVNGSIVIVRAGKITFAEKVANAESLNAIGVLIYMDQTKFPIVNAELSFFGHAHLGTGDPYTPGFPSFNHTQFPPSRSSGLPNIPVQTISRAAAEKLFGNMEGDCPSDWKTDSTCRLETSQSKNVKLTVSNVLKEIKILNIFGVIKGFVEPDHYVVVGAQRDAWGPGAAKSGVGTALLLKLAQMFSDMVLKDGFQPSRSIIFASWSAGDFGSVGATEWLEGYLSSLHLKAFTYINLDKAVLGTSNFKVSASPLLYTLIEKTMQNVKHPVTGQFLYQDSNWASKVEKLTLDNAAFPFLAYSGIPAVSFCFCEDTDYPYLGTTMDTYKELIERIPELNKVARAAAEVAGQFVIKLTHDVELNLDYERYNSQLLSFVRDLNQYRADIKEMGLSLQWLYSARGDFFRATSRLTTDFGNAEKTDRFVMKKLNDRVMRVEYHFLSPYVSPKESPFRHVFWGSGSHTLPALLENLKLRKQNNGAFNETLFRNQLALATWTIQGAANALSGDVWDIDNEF

[7] = molecular target: chimeric TfR A14 (human/mouse chimera) (UniProt P02786); experiment: as above
Chain of chimeric TfR A14 (human/mouse chimera) (P02786 other isoform, or with tags, fused parts or gaps mutant): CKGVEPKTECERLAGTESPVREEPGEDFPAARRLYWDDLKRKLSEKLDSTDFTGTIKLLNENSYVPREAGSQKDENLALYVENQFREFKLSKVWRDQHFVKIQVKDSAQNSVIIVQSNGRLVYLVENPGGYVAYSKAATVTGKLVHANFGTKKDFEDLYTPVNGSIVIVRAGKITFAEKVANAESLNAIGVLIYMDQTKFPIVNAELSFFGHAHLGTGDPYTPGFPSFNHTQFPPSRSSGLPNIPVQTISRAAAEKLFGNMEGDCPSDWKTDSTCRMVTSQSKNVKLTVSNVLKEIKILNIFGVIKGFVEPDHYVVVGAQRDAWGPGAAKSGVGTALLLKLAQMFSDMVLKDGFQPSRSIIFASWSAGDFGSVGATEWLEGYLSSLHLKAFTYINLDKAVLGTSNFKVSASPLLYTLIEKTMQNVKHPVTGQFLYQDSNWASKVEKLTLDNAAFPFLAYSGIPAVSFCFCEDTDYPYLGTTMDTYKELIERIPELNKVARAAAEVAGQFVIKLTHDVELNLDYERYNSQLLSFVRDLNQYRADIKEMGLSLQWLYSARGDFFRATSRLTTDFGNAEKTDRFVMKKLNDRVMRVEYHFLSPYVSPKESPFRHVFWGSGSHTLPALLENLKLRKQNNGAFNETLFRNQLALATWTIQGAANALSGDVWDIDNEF

[8] = molecular target: huTfR with mouse protease-like domain (human/mouse chimera); experiment: as above
Chain of huTfR with mouse protease-like domain (human/mouse chimera) (chain, as listed by the source mutant limits assumed): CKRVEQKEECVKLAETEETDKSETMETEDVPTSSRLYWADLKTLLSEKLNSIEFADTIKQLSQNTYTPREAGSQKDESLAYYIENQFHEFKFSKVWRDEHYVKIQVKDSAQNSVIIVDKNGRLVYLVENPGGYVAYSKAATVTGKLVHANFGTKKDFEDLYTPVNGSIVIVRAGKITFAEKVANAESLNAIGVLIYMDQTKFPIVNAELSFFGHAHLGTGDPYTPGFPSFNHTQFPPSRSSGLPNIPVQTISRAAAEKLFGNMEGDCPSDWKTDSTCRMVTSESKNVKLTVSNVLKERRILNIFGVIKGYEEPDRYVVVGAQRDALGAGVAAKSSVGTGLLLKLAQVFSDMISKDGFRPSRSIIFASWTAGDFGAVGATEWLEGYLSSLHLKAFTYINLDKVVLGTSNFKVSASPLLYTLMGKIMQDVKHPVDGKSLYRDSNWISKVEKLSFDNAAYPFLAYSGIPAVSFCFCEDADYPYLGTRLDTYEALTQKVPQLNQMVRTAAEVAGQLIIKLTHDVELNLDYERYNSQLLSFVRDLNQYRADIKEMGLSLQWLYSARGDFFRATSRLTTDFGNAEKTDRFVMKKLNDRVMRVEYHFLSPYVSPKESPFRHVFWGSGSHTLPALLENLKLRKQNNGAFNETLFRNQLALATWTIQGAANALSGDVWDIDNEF

[9] = molecular target: chimeric TfR A03 (human/mouse chimera) (UniProt P02786); experiment: ELISA on immobilized chimeric TfR
[10] = molecular target: chimeric TfR A04 (human/mouse chimera) (UniProt P02786); experiment: ELISA on immobilized chimeric TfR

Chain of huTfR with mouse apical domain (human/mouse chimera) (P02786 other isoform, or with tags, fused parts or gaps mutant): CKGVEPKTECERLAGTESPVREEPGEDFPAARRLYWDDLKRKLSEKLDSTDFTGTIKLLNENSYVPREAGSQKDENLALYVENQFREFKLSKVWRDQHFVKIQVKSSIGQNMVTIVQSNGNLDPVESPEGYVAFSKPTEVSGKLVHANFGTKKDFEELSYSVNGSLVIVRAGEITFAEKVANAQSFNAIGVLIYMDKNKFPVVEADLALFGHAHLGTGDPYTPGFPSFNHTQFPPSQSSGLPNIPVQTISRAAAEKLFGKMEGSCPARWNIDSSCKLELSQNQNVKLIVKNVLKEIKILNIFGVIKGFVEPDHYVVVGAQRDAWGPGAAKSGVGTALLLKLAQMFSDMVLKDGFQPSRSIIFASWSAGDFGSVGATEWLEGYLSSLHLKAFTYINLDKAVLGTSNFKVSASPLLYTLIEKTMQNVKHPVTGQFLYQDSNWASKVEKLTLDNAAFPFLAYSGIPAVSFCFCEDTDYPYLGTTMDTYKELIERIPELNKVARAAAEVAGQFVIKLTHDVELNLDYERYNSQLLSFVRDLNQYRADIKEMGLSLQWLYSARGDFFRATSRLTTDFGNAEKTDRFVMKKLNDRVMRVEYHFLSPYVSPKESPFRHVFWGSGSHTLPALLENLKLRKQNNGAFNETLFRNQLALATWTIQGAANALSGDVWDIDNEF
Chain of chimeric TfR A02 (human/mouse chimera) (P02786 other isoform, or with tags, fused parts or gaps mutant): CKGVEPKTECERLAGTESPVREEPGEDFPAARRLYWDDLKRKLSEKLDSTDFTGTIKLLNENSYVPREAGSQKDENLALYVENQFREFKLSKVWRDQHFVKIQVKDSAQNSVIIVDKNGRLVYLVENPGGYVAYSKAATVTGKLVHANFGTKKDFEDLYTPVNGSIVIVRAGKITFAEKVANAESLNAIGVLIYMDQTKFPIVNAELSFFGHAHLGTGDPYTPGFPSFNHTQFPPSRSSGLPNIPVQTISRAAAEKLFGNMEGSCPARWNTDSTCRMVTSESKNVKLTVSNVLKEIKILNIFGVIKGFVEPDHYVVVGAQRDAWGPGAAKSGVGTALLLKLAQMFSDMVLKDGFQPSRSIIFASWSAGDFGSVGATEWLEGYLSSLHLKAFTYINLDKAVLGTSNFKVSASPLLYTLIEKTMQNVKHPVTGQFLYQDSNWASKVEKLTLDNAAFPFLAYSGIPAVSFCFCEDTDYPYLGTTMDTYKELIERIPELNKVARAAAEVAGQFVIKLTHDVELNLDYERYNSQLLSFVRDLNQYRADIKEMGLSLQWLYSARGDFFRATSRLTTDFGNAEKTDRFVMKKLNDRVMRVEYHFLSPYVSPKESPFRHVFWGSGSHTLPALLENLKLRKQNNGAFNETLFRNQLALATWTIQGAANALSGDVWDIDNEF

ratio of ELISA binding activity (A450-A570) to chimeric TfR over that to His-huTfR [1]: < 0.2 | ratio of ELISA binding activity (A450-A570) to chimeric TfR over that to His-huTfR [2]: < 0.2 | ratio of ELISA binding activity (A450-A570) to chimeric TfR over that to His-huTfR [3]: > 0.5 | ratio of ELISA binding activity (A450-A570) to chimeric TfR over that to His-huTfR [4]: 0.2 to 0.5 | ratio of ELISA binding activity (A450-A570) to chimeric TfR over that to His-huTfR [5]: > 0.5 | ratio of ELISA binding activity (A450-A570) to chimeric TfR over that to His-huTfR [6]: > 0.5 | ratio of ELISA binding activity (A450-A570) to chimeric TfR over that to His-huTfR [7]: > 0.5 | ratio of ELISA binding activity (A450-A570) to chimeric TfR over that to His-huTfR [8]: > 0.5
B1: 16F6v4 (antibody, from another filing, V domains shown)
VH: EVQLVESGPGLVKPSETLSLTCTVSGNSITSEYAWNWIRQPPGKGLEWIGYISYSGTTSYNPSLKSRVTISRDTSKNQLSLKLSSVTAADTAVYYCARYGYGNPATRYFDVWGQGTLVTVSS
VL: DIQMTQSPSSLSASVGDRVTITCRASKSISKYLAWYQQKPGKTNKLLLYSGSTLQSGVPSRFSGSGSGTDYTLTISSLQPEDFATYYCQQHNEYPWTFGQGTKVEIK

ratio of ELISA binding activity (A450-A570) to chimeric TfR over that to His-huTfR [1]: < 0.2 | ratio of ELISA binding activity (A450-A570) to chimeric TfR over that to His-huTfR [2]: < 0.2 | ratio of ELISA binding activity (A450-A570) to chimeric TfR over that to His-huTfR [3]: > 0.5 | ratio of ELISA binding activity (A450-A570) to chimeric TfR over that to His-huTfR [4]: 0.2 to 0.5 | ratio of ELISA binding activity (A450-A570) to chimeric TfR over that to His-huTfR [5]: > 0.5 | ratio of ELISA binding activity (A450-A570) to chimeric TfR over that to His-huTfR [6]: 0.2 to 0.5 | ratio of ELISA binding activity (A450-A570) to chimeric TfR over that to His-huTfR [7]: > 0.5 | ratio of ELISA binding activity (A450-A570) to chimeric TfR over that to His-huTfR [8]: > 0.5
B2: 7A4v15 (antibody, from another filing, V domains shown)
VH: EVQLVQSGAEVKKPGASVKVSCKGSGYTFTDYAMHWVRQAPGQGLEWMGGISTYFGRTNYNQKFKGRVTMTVDTSISTAYMELSRLRSDDTAVYYCARGLSGNYVMDYWGQGTTVTVSS
VL: DIVMTQSPDSLAVSLGERATINCRASESVDSYGNSFMHWYQQKPGQPPKLLIYRASNLESGVPDRFSGSGSRTDFTLTISSLQAEDVAVYYCQQSNEAPPTFGQGTKLEIK

ratio of ELISA binding activity (A450-A570) to chimeric TfR over that to His-huTfR [1]: < 0.2 | ratio of ELISA binding activity (A450-A570) to chimeric TfR over that to His-huTfR [9]: < 0.2 | ratio of ELISA binding activity (A450-A570) to chimeric TfR over that to His-huTfR [10]: < 0.2 | ratio of ELISA binding activity (A450-A570) to chimeric TfR over that to His-huTfR [2]: < 0.2 | ratio of ELISA binding activity (A450-A570) to chimeric TfR over that to His-huTfR [5]: > 0.5 | ratio of ELISA binding activity (A450-A570) to chimeric TfR over that to His-huTfR [6]: 0.2 to 0.5 | ratio of ELISA binding activity (A450-A570) to chimeric TfR over that to His-huTfR [7]: > 0.5 | ratio of ELISA binding activity (A450-A570) to chimeric TfR over that to His-huTfR [8]: > 0.5
B3: 15G11v5 (antibody, from another filing, V domains shown)
VH: EVQLVQSGAEVKKPGASVKVSCKASGYTFTSYWMHWVRQAPGQRLEWIGEINPTNGRTNYIEKFKSRATLTVDKSASTAYMELSSLRSEDTAVYYCARGTRAYHYWGQGTMVTVSS
VL: DIQMTQSPSSLSASVGDRVTITCRASDNLYSNLAWYQQKPGKSPKLLVYDATNLADGVPSRFSGSGSGTDYTLTISSLQPEDFATYYCQHFWGTPLTFGQGTKVEIK
